Experimental data published in paper PMC4618531 (BMC Microbiology, 2015).

What was measured:
[1] = target: Ralstonia solanacearum FabG1 (3-ketoacyl-ACP reductase, RSc1052), N-terminal hexahistidine-tagged (Ralstonia solanacearum GMI1000); test: SEC
[2] = target: Ralstonia solanacearum FabG2 (3-ketoacyl-ACP reductase, RSp0359), N-terminal hexahistidine-tagged (Ralstonia solanacearum GMI1000); test: SEC
[3] = target: T1, RsFabG2 (Ralstonia pseudosolanacearum, UniProt Q8XSV8); conditions: 50 μM NADPH, malonyl-ACP plus octanoyl-ACP or tetradecanoyl-ACP, 0.1 M sodium phosphate pH 7.0, 37 °C
T1 construct: gene fabG2

[4] = substrate: NC(=O)C1=CN([C@@H]2O[C@H](COP(=O)(O)OP(=O)(O)OC[C@H]3O[C@@H](n4cnc5c(N)ncnc54)[C@H](OP(=O)(O)O)[C@@H]3O)[C@@H](O)[C@H]2O)C=CC1; test: purified protein; conditions: 200 μM acetoacetyl-CoA, 0.1 M sodium phosphate pH 7, 0.1 M LiCl, varied: cofactor
[5] = substrate: CC(=O)CC(=O)SCCNC(=O)CCNC(=O)[C@H](O)C(C)(C)COP(=O)(O)OP(=O)(O)OC[C@H]1O[C@@H](n2cnc3c(N)ncnc32)[C@H](O)[C@@H]1OP(=O)(O)O; test: purified protein; conditions: 200 μM NADPH, 0.1 M sodium phosphate pH 7, 0.1 M LiCl

Molecule: Ralstonia solanacearum FabG1 (3-ketoacyl-ACP reductase, RSc1052), N-terminal hexahistidine-tagged (enzyme)
- stoichiometry N [1]: 4

Molecule: Ralstonia solanacearum FabG2 (3-ketoacyl-ACP reductase, RSp0359), N-terminal hexahistidine-tagged (enzyme)
- stoichiometry N [2]: 4

Molecule: NC(=O)C1=CN([C@@H]2O[C@H](COP(=O)(O)OP(=O)(O)OC[C@H]3O[C@@H](n4cnc5c(N)ncnc54)[C@H](OP(=O)(O)O)[C@@H]3O)[C@@H](O)[C@H]2O)C=CC1 [NADPH]
- reconstituted 3-ketoacyl-ACP reduction with EcFabB and EcFabZ, urea gel [3]: Upon the addition of NADPH, a 3-ketoacyl-ACP reductase (EcFabG, RsFabG1 or RsFabG2) and EcFabZ

B1: EcFabG (Escherichia coli K-12) (protein)
chain: MNFEGKIALVTGASRGIGRAIAETLAARGAKVIGTATSENGAQAISDYLGANGKGLMLNVTDPASIESVLEKIRAEFGEVDILVNNAGITRDNLLMRMKDEEWNDIIETNLSSVFRLSKAVMRAMMKKRHGRIITIGSVVGTMGNGGQANYAAAKAGLIGFSKSLAREVASRGITVNVVAPGFIETDMTRALSDDQRAGILAQVPAGRLGGAQEIANAVAFLASDEAAYITGETLHVNGGMYMV
- Km [4]: 5.41 ± 1.3 µM
- Vmax [4]: 3.54 µmol/min/mg
- kcat [4]: 1.65 ± 0.43 s⁻¹
- Km [5]: 4372.6 ± 105.1 µM
- Vmax [5]: 97 µmol/min/mg
- kcat [5]: 45.28 ± 4.3 s⁻¹
